The results in this text go back to the DeepSol protein solubility set.

A short description of the series: soluble on expression in E. coli; label from the status in PepcDB or PDB records.
Consider “MNSPLAPVGVFDSGVGGLTVARAIIDQLPDEDIVYVGDTGNGPYGPLTIPEIRAHALAIGDDLVGRGVKALVIACNSASSACLRDARERYQVPVVEVILPAVRRAVAATRNGRIGVIGTRATITSHAYQDAFAAARDTEITAVACPRFVDFVERGVTSGRQVLGLAQGYLEPLQRAEVDTLVLGCTHYPLLSGLIQLAMGENVTLVSSAEETAKEVVRVLTEIDLLRPHDAPPATRIFEATGDPEAFTKLAARFLGPVLGGVQPVHPSRIH”, for which the “soluble on expression in E. coli” value is reported as “not soluble”.
The entry for “MKTNPAVDSARLGLLLNELRLPAIKVMWPQFAERADKEGWPAARFLAAIIEHELAERDRRRIERHLAEARLLPGKTLDTFEFEAVPMISKAQVMAITAGDSWLEKGANLLLFGPPGGGKSHLASAIGLALIETGWRVMFTRTTDLVQKLQVARRELGLEAAINRLDRFHLLILDDLAYVTKDQAETSVLFELISARYERRSLLITANQPFGEWGKVFPDPSNARYPCCAAALEHHHHHH” is “not soluble”; for “MGSDKIHHHHHHVSQPTSSLVGKSRASIYRDLVLSAQGVRFGKTAGKDVDVIKYLFALLILLAFSAKGYHPKEAHEPLTTLAVDAMAQCGINLSESTRLQLMQGNLAMDEGAGKLPKELMNTSFAKAVFPMTKRIHNWHFYHPDKTADAQRLAGKTDMSMARLWQAAQAGLEQAPAEHKAYYLGAIIHLIQDVTVPAHAVPVYHGPKIIAWQREFAPLVNYLGFGFRGIFVIHDPVDDWPVNSTGAEQPIAAIPCPELHAASSNLSANFDALRTRVARQTLTALDNPIPGCAAPWRLFWREDLGHRYFAGYTQGIKPFGRANSLSGEGISIDGRPCEPDYQGFVETRHRAAIEATMAALQLSQLGVVSPVPTEAQ” it is “not soluble”.
The entry for “MIEITVNDRLGKKVRIKCNPSDTIGDLKKLIAAQTGTRWEKIVLKKWYTIYKDHITLMDYEIHEGFNFELYYQ” is “not soluble”.
Consider “MGSDKIHHHHHHMSDASKPDSNEVREIRINPVVPGESVLVATARSMRPKKAEELAPRDTRKHVETCPFCRGNEHKTPPAILTWPDTGDWQIRMVENLYPVLGDDRAQAGFTFGLQQTIDGYGRHEVIIDHSEHGIAVQDMAETHLAALFGVYQTRMRQLFDSDERLKYVLVFKNFGPAAGASIPHTHSQVIAMPVVPENVDAEVRNSATHYAKHHHCIFCALIDEALTFEATIYDRNSGAVRRKINVGQYVVERGEKFIAIKPFASRYEWEVHILPLAHQADFLDVRGEDLADLARVMKRTMARLDAVIGGAQYNFFLHSVPHDAQQATHAPSYHWHLEICPRTSIPTGFELGSGLFVNTINPEEAAERLRSVELPAR”, for which the “soluble on expression in E. coli” value is given as “not soluble”.
Consider “MGSDKIHHHHHHVAISVAGGVRPGKIIEIEHRLYQQLILGKHKASPTLLDDLDLELEADANKLDVEREAILARLMKQIKAKEVFEAVSSQLHETVNNAIEHQLASPELVLAKSEINESQILLLELLLAKNLDATRLRPLISNLSWLCRDLTNMVNSPSFRARRPQSSDVRVTDIKLVMNYIGIENLRTIIPYFCLRNWLPSANAKLLWTTRKLWRYSIVSGIAANALAQLHNTDSALVYSSALLNQLGTSVVLSLSARLFDQTWGAWIREASSSRDKEVYDAVIATEFPAKAVFEQVLSHGHKLNWQLLELLKFEASPLTGLLKELDLTLSYRELSPQAALVARANCYAKVVLLEEMRQIDPQEKRLMFDYYELTEQEVLRLKAQNYRKLDLL”, for which the “soluble on expression in E. coli” value is “not soluble”.
“MLDRIRGQLEQLSSAERKVADLVLEQPYTVIQAAVAEIARNAGVSQPTVIRFCRTVGCSGLPDFKLKLAGSLVTGVPYVHSSVRPEDPTSEIVAKVFDNTVSALLKCRNDVN”: the “soluble on expression in E. coli” value was “not soluble”.
With “MGSDKIHHHHHHMSTRIPTEESLDTQQKDFLKKLKDNHYVGQNIWIKGFPGSGKSVLLVYAIKYLLNNEATQNAKILLVVFTHSLIELCKAELAELNITNVKIVTMYEFLKTKRKYDYIFCDEVQDLTSRILIKMKDQTRYMLIVAGDSNQSIYSKDPQYQEAVVIPEKITQLIDSEDWGLLYVYRLTRSIITAIQKMIPSMNIFSAKRYMLKRDTQIRLCKAEFVDQEVEYIMREARKFVNRNQSCAILFPTKDKVLEFCDTVLQLEHKPVWEKWIDQYYEPYFKRLNDHLKENQVPIECVVNSYGSLLAAENDKRIVIMTYHGVKGLDFDNVFIPFANTDLYIPGDSNITQKLFMVAMSRSRNNLYITYTGMPLSYVSLFSSDSTICANISISNELHPNLSDDINIDF” the entry was “not soluble”; with “MSLGKRIFVFDTTLRDGEQVPGCQLNTEEKIIVAKALDELGVDVIEAGFPVSSPGDFNSVVEITKAVTRPTICALTRAKEADINIAGEALRFAKRSRIHTGIGSSDIHIEHKLRSTRENILEMAVAAVKQAKKVVHEVEFFCEDAGRADQAFLARMVEAVIEAGADVVNIPDTTGYMLPWQYGERIKYLMDNVSNIDKAILSAHCHNDLGLATANSLAALQNGARQVECTINGIGERAGNTALEEVVMAMECHKETLGLETGINHKKLVPISHLVSTLMRMQVQSNKAIVGRNAFAHSSGIHQDGFLKHRETYEIIDPAAVGADSSSIILTARSGRAALNHRLATIGYMLSKDQLDQAYTQFLDMADHLRKVEDENLHELMRGKVYAKEGHHHHHH”, “soluble”; with “MQFSKMHGLGNDFVVVDGVTQNVFFTPETIRRLANRHCGIGFDQLLIVEAPYDPELDFHYRIFNADGSEVSQCGNGARCFARFVTLKGLTNKKDISVSTQKGNMVLTVKDDNQIRVNMGEPIWEPAKIPFTANKFEKNYILRTDIQTVLCGAVSMGNPHCVVQVDDIQTANVEQLGPLLESHERFPERVNAGFMQIINKEHIKLRVYERGAGETQASGSGACAAVAVGIMQGLLNNNVQVDLPGGSLMIEWNGVGHPLYMTGEATHIYDGFITL”, “soluble”.
On to “MAEKKLLLGDEAIALGAIHAGISGVYAYPGTPSTEITEFIQNNRLAKERKLHSTWCTNEKTAMEAALGMSYAGKRALVCMKHVGMNVAADAFVNSAITGVNGGLVVLAADDPSMHSSQNEQDSRFYGKFAMIPMLEPSSQQEAYDMMDYAYTLSEKLKLPVLMRVVTRLAHSRAGVEVADIREENQLNPD”, for which the “soluble on expression in E. coli” value is on record as “soluble”.
“MAHHHHHHMSSRIGHAGTGMPTRGIASFPNSPPAVRNSCSTADTEGFGVSMESTIFTGTFSTAACAHAPTRRTVEAREQTSTVLDHLVTHIVDVPFFLARNAEERAHGCSLSLATAACPGTKLVMRNPRRRLISHSSQTHGAPASSHWPKVLFVPDSSSQRLAAPP”: the “soluble on expression in E. coli” value is “not soluble”.
The entry for “MAIELYSQREIEKIRKASQIVAEVLHIVAENVKPGVSTWDLEMIARKETEKRGAKPAFLGYKPPFSDVRYPAALCISINDEVVHGLPKKEKVIKEGDVVSIDFGAIYDGYAGDSAITVIAGKGSPEAQKLLEATKEALYNAIEKALPGKKVGDITKAIHETAEKYGFKTILRYGGHGVGRKVHQEPFVPNNVKDIGKKNPRLRQGMVIAIEPMLSIGTEETVEDGDGWTVKTKDGSLAAHFEHTVAITKKGPVILTEL” is “soluble”; for “MSLGQFWHVTDLHLDPTYHITDDHTKVCASSKGANASNPGPFGDVLCDSPYQLILSAFDFIKNSGQEASFMIWTGDSPPHVPVPELSTDTVINVITNMTTTIQSLFPNLQVFPALGNHDYWPQDQLPVVTSKVYNAVANLWKPWLDEEAISTLRKGGFYSQKVTTNPNLRIISLNTNLYYGPNIMTLNKTDPANQFEWLESTLNNSQQNKEKVYIIAHVPVGYLPSSQNITAMREYYNEKLIDIFQKYSDVIAGQFYGHTHRDSIMVLSDKKGSPVNSLFVAPAVTPVKSVLEKQTNNPGIRLFQYDPRDYKLLDMLQYYLNLTEANLKGESIWKLEYILTQTYDIEDLQPESLYGLAKQFTILDSKQFIKYYNYFFVSYDSSVTCDKTCKAFQICAIMNLDNISYADCLKQLYIKHNYEGHHHHHH” it is “not soluble”.
The entry for “MGSDKIHHHHHHMAIKATDLFKLVSLSYPSATDDGYFVQENRISEADNTYYQRICFVNHRGGTIAYGFDQKHDRHPLLSPDQQWLAFLSQASDKTTQVFLQAVNGGTAKQFSAEKEGVSYFGWQADSQALFIQTTVGAKPKKTDKQWPQPVTVSRVPYKLNGVGLLPEHVAYELRVQRLRQKTSRLVMGREHEFEVGAISPDGQTLAFTAERLPDDPNDFSQATYLLNLADQQVTMVNDQLPQAALSPEAFSADGKQLLLVGSDNHLPNVSQSHLWHYDLATKTLQDVADDIDFDIPGHVNGDFQQDLSEKVADFATADYYLTIGFDHGKTSLYAGGPDEQLTPLIGGRRHVTDYALTPDHHGVVFTESTMTVPSRLSYFDLATEEEHVIYDPNRRVTRDMGLVTPQTFNFQRDGFEIEGWYFPPQQATASHPAILYVHGGPAVGYGYTFFHEMQFLAA” is “not soluble”; for “MNDHSQLFRLLALLLDYPRAELREESLGLHALIRTCELPEALRDGLAALLNELCQGDLLDVQARYDGLFERGRSVSLLLFEHVHGESRDRGQAMVDLLDRYTGAGLQIDVPELPDYLPLYLEYLSLLPFAAASEGLAEVAHILGLLALRLEERGSAYAAIFEALLELGGERPDLGALRRDQAQEQRDDSLEAIDRAWEETPVSFTDPAGGCPSSSGRRPTASTEQPLQWVAQPVPQM” it is “not soluble”.
For the sequence “MTHPRDSIALTSDSLVLRFLSESGIPISDNNKVRLLKSGREKFIDLFSAIRDAKHHIHLEYFNFRNDSIANALFDLLAEKVKEGVEVRAMFDAFGNWSNNKPLKKRHLKKIREQGIEIVKFDPFTFPYINHAAHRDHRKIAVIDGEVAYTGGMNIADYYINGLPKIGTWRDMHMRIEGDAVNDLQEIFLTIWNKETKQNIGGEAYFPKHKEQSDSTNVVVAIVDRTPKKNSRMLSHA”, the “soluble on expression in E. coli” value is listed as “not soluble”.
With “MDKSNGLRVILFPLPLQGCINPMIQLAKILHSRGFSITVIHTRFNAPKASNHPLFTFLQIPDGLSETETRTHDITLLLTLLNRSCESPFRECLTKLLQSADSETGEEKQRISCLIDDSGWIFTQPVAQSFNLPRLVLNTYKVSFFRDHFVLPQLRREMYLPLQDSEQGDDPVEEFPPLRKKDLLQILDQESEQLDSYSNMILETTKASSGLIFVSTCEELDQDSLSQAREDYQVPIFTIGPSHSYFPGSSSSLFTVDETCIPWLDKQEDKSVIYVSFGSISTIGEAEFMEIAWALRNSDQPFLWVVRGGSVVHGAEWIEQLHEKGKIVNWAPQQEVLKHQAIGGFLTHNGWNSTVESVFEGVPMICMPFVWDQLLNARFVSDVWMVGLHLEGRIERNVIEGMIRRLFSETEGKAIRERMEILKENVGRSVKPKGSAYRSLQHLIDYITYF” the entry was “soluble”; with “MVTLEELKAVFKPKLKPIIWREDSLDLLDQSALPFQTTYITVKTPEEVAKAIKLMQVRGAPAIGITAGYGMVLALISTKPNTLNEAIEELVKAKQIMDQARPTAVNLSWATSRMLNFAKKKIEEGEAKSVSELIQLMKEEANRIYEEELEAELKIGMYGLEKISDGDTILTQCNAGGLATGTGLGTALAPVKLAHYLGMKVSVIAPETRPWLQGSRLTVYELMAEGIQVTLITDTAVGLVIYKNMVNSVMVGADRILKDGHVFNKIGTFKEAVISHELGIPFYALAPSSSFDLKSKVDEIKIEERDPNEVRTIRGIPIVPENVKVYNPVFDVTPPKYITALITEKGVIYPPFEKNIPKIIGL”, “soluble”.
Turning to “SMATKIDKEACRAAYNLVRDDGSAVIWVTFKYDGSTIVPGEQGAEYQHFIQQCTDDVRLFAFVRFTTGDAMSKRSKFALITWIGENVSGLQRAKTGTDKTLVKEVVQNFAKEFVISDRKELEEDFIKSELKKAGGANYDAQTE”, the “soluble on expression in E. coli” value is “soluble”.
